Experimental data reported in patent publication US20140087995A1 (published 2014).
Numbered stars: 1 amine (or outer) side, 2 acyl side, 3 side chain; on linkers, the order of the positions; unused ones are H or OH. Bridge positions count the residues as written; N and C are the ends. Side chains are listed from the residue outwards. Ends that are not written are not given here. * marks the point of attachment. C20 diacid = O=C(O)CCCCCCCCCCCCCCCCCCC(=O)*; γGlu = O=C(O)[C@H](CCC(=O)[*:2])N[*:1]; AEEA = NCCOCCOCC(=O)O

T1: rat amylin receptor (rat calcitonin receptor + rat RAMP 3) (rat, UniProt P32214 25-516; Q9JJ73 23-147)
T1 construct: whole, on cells; Membranes prepared from transiently transfected BHK tk'ts 13 cells (Assay VI); also called rAmylin-R; rAmylin
T1 sequence (looked up) 1: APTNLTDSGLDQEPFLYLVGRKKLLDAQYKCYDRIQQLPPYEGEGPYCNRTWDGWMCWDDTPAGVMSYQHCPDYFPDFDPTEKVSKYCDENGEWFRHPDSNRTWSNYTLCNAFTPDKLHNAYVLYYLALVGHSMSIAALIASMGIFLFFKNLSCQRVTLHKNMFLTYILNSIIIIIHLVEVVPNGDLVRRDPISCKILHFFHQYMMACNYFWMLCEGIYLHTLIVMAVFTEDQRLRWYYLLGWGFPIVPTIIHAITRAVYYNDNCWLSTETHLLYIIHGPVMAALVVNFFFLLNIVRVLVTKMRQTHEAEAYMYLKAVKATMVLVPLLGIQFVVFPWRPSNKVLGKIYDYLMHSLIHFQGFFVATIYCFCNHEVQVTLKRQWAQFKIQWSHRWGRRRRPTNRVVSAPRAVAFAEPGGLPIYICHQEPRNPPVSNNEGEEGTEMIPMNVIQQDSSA
T1 sequence (looked up) 2: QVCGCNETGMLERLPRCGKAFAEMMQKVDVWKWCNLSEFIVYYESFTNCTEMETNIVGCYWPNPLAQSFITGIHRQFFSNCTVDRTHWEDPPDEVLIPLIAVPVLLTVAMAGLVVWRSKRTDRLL

T2: human calcitonin receptor (human, UniProt P30988 25-474)
T2 construct: whole, on cells; Membranes prepared from a stably transfected BHK cell line (Assay VII); also called hCTR; hCT
T2 sequence (looked up): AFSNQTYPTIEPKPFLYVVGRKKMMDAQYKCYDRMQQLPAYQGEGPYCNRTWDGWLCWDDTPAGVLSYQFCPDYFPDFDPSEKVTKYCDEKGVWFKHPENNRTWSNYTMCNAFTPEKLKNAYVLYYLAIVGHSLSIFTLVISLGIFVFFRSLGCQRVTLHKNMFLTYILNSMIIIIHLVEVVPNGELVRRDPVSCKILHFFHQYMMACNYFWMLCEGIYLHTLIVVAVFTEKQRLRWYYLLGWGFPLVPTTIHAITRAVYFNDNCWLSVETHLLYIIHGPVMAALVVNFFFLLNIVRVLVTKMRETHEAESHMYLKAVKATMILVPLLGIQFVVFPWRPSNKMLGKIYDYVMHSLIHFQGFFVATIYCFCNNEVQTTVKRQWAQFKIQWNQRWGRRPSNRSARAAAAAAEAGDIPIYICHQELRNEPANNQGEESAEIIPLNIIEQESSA

T3: rat calcitonin receptor (rat, UniProt P32214 25-516)
T3 construct: whole, on cells; Membranes prepared from transiently transfected BHK tk'ts 13 cells (Assay VIII); also called rCTR; rCT
T3 sequence (looked up): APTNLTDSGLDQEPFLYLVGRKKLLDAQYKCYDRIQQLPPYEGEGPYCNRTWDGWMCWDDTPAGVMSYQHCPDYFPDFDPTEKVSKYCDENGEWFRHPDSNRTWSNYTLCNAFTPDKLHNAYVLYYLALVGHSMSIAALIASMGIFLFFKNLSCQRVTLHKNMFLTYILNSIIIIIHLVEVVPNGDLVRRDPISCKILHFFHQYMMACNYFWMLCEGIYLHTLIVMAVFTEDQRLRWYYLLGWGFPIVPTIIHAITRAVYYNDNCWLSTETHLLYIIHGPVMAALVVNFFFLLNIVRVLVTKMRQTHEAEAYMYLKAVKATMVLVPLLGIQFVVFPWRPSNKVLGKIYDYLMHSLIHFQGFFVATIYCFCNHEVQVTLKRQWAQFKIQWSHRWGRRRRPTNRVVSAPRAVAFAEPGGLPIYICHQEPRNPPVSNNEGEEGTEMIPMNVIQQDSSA


Key:
[1] = target: T1, rat amylin receptor (rat calcitonin …); assay: SPA competition vs 125I-rat amylin, membranes of BHK cells with rat calcitonin receptor + rat RAMP3 (Assay VI)
[2] = target: T2, human calcitonin receptor; assay: ratio of binding IC50s: human calcitonin receptor / human amylin receptor (reference)
How it was run: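 IC₅₀ values were derived by one-site competition analysis of SPA counts. Cell membranes (35 ng/μL) with SPA beads were incubated with test compounds for 120 min at 25° C in Hepes buffer, pH 7.4, containing CaCl2, MgCl₂, OA and Tween20.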

rat calcitonin receptor [3] = target: T3, rat calcitonin receptor; assay: SPA competition vs 125I-calcitonin, membranes of BHK cells with rat calcitonin receptor (Assay VIII)
rat calcitonin receptor [4] = target: T3, rat calcitonin receptor; assay: ratio of binding IC50s: rat calcitonin receptor / rat amylin receptor (reference)

Binder | IC50 [1] | Ratio hCT/hAmylin binding [2] | IC50 (rat calcitonin receptor [3]) | Ratio rCT/rAmylin binding (rat calcitonin receptor [4])
K([γGlu-C20 diacid])CNTATCATQRLARFLRHSSPNFGAIPSSTPVGSNTY-NH2 (disulfide 2-7; N-terminus assumed; SMILES CC[C@H](C)[C@H](NC(=O)[C@H](C)NC(=O)CNC(=O)[C@H](Cc1ccccc1)NC(=O)[C@H](CC(N)=O)NC(=O)[C@@H]1CCCN1C(=O)[C@H](CO)NC(=O)[C@H](CO)NC(=O)[C@H](Cc1c[nH]cn1)NC(=O)[C@H](CCCNC(=N)N)NC(=O)[C@H](CC(C)C)NC(=O)[C@H](Cc1ccccc1)NC(=O)[C@H](CCCNC(=N)N)NC(=O)[C@H](C)NC(=O)[C@H](CC(C)C)NC(=O)[C@H](CCCNC(=N)N)NC(=O)[C@H](CCC(N)=O)NC(=O)[C@@H](NC(=O)[C@H](C)NC(=O)[C@@H]1CSSC[C@H](NC(=O)[C@@H](N)CCCCNC(=O)CC[C@H](NC(=O)CCCCCCCCCCCCCCCCCCC(=O)O)C(=O)O)C(=O)N[C@@H](CC(N)=O)C(=O)N[C@@H]([C@@H](C)O)C(=O)N[C@@H](C)C(=O)N[C@@H]([C@@H](C)O)C(=O)N1)[C@@H](C)O)C(=O)N1CCC[C@H]1C(=O)N[C@@H](CO)C(=O)N[C@@H](CO)C(=O)N[C@H](C(=O)N1CCC[C@H]1C(=O)N[C@H](C(=O)NCC(=O)N[C@@H](CO)C(=O)N[C@@H](CC(N)=O)C(=O)N[C@H](C(=O)N[C@@H](Cc1ccc(O)cc1)C(N)=O)[C@@H](C)O)C(C)C)[C@@H](C)O, Analogue of human amylin; also called compound 63) | 3.48 nM | 157 | 124 nM | 35.6
K([γGlu-C20 diacid])CNTATCATQRLAAFLRHSSPNFGAIPSSTNVGHNTY-NH2 (disulfide 2-7; N-terminus assumed; SMILES CC[C@H](C)[C@H](NC(=O)[C@H](C)NC(=O)CNC(=O)[C@H](Cc1ccccc1)NC(=O)[C@H](CC(N)=O)NC(=O)[C@@H]1CCCN1C(=O)[C@H](CO)NC(=O)[C@H](CO)NC(=O)[C@H](Cc1c[nH]cn1)NC(=O)[C@H](CCCNC(=N)N)NC(=O)[C@H](CC(C)C)NC(=O)[C@H](Cc1ccccc1)NC(=O)[C@H](C)NC(=O)[C@H](C)NC(=O)[C@H](CC(C)C)NC(=O)[C@H](CCCNC(=N)N)NC(=O)[C@H](CCC(N)=O)NC(=O)[C@@H](NC(=O)[C@H](C)NC(=O)[C@@H]1CSSC[C@H](NC(=O)[C@@H](N)CCCCNC(=O)CC[C@H](NC(=O)CCCCCCCCCCCCCCCCCCC(=O)O)C(=O)O)C(=O)N[C@@H](CC(N)=O)C(=O)N[C@@H]([C@@H](C)O)C(=O)N[C@@H](C)C(=O)N[C@@H]([C@@H](C)O)C(=O)N1)[C@@H](C)O)C(=O)N1CCC[C@H]1C(=O)N[C@@H](CO)C(=O)N[C@@H](CO)C(=O)N[C@H](C(=O)N[C@@H](CC(N)=O)C(=O)N[C@H](C(=O)NCC(=O)N[C@@H](Cc1c[nH]cn1)C(=O)N[C@@H](CC(N)=O)C(=O)N[C@H](C(=O)N[C@@H](Cc1ccc(O)cc1)C(N)=O)[C@@H](C)O)C(C)C)[C@@H](C)O, Analogue of human amylin; also called compound 93) | 1.58 nM | 101 | 131 nM | 83.2

Continued by falling IC50 [1], values first:

IC50 [1] | Ratio hCT/hAmylin binding [2] | IC50 (rat calcitonin receptor [3]) | Ratio rCT/rAmylin binding (rat calcitonin receptor [4]) | Binder
4.03 nM | 91.4 | 442 nM | 110 | K([AEEA-γGlu-C20 diacid])CNTATCATQRLATFLRHSSPNFGAIPSSTPVGSNTY-NH2 (disulfide 2-7; N-terminus assumed; SMILES CC[C@H](C)[C@H](NC(=O)[C@H](C)NC(=O)CNC(=O)[C@H](Cc1ccccc1)NC(=O)[C@H](CC(N)=O)NC(=O)[C@@H]1CCCN1C(=O)[C@H](CO)NC(=O)[C@H](CO)NC(=O)[C@H](Cc1c[nH]cn1)NC(=O)[C@H](CCCNC(=N)N)NC(=O)[C@H](CC(C)C)NC(=O)[C@H](Cc1ccccc1)NC(=O)[C@@H](NC(=O)[C@H](C)NC(=O)[C@H](CC(C)C)NC(=O)[C@H](CCCNC(=N)N)NC(=O)[C@H](CCC(N)=O)NC(=O)[C@@H](NC(=O)[C@H](C)NC(=O)[C@@H]1CSSC[C@H](NC(=O)[C@@H](N)CCCCNC(=O)COCCOCCNC(=O)CC[C@H](NC(=O)CCCCCCCCCCCCCCCCCCC(=O)O)C(=O)O)C(=O)N[C@@H](CC(N)=O)C(=O)N[C@@H]([C@@H](C)O)C(=O)N[C@@H](C)C(=O)N[C@@H]([C@@H](C)O)C(=O)N1)[C@@H](C)O)[C@@H](C)O)C(=O)N1CCC[C@H]1C(=O)N[C@@H](CO)C(=O)N[C@@H](CO)C(=O)N[C@H](C(=O)N1CCC[C@H]1C(=O)N[C@H](C(=O)NCC(=O)N[C@@H](CO)C(=O)N[C@@H](CC(N)=O)C(=O)N[C@H](C(=O)N[C@@H](Cc1ccc(O)cc1)C(N)=O)[C@@H](C)O)C(C)C)[C@@H](C)O, Analogue of human amylin; also called compound 75)
2.83 nM | 146 | 140 nM | 49.7 | K([γGlu-C20 diacid])CNTATCATQRLARFLRHSSPNFGAIPSSTNVGSNTY-NH2 (disulfide 2-7; N-terminus assumed; SMILES CC[C@H](C)[C@H](NC(=O)[C@H](C)NC(=O)CNC(=O)[C@H](Cc1ccccc1)NC(=O)[C@H](CC(N)=O)NC(=O)[C@@H]1CCCN1C(=O)[C@H](CO)NC(=O)[C@H](CO)NC(=O)[C@H](Cc1c[nH]cn1)NC(=O)[C@H](CCCNC(=N)N)NC(=O)[C@H](CC(C)C)NC(=O)[C@H](Cc1ccccc1)NC(=O)[C@H](CCCNC(=N)N)NC(=O)[C@H](C)NC(=O)[C@H](CC(C)C)NC(=O)[C@H](CCCNC(=N)N)NC(=O)[C@H](CCC(N)=O)NC(=O)[C@@H](NC(=O)[C@H](C)NC(=O)[C@@H]1CSSC[C@H](NC(=O)[C@@H](N)CCCCNC(=O)CC[C@H](NC(=O)CCCCCCCCCCCCCCCCCCC(=O)O)C(=O)O)C(=O)N[C@@H](CC(N)=O)C(=O)N[C@@H]([C@@H](C)O)C(=O)N[C@@H](C)C(=O)N[C@@H]([C@@H](C)O)C(=O)N1)[C@@H](C)O)C(=O)N1CCC[C@H]1C(=O)N[C@@H](CO)C(=O)N[C@@H](CO)C(=O)N[C@H](C(=O)N[C@@H](CC(N)=O)C(=O)N[C@H](C(=O)NCC(=O)N[C@@H](CO)C(=O)N[C@@H](CC(N)=O)C(=O)N[C@H](C(=O)N[C@@H](Cc1ccc(O)cc1)C(N)=O)[C@@H](C)O)C(C)C)[C@@H](C)O, Analogue of human amylin; also called compound 83) [N^ε1-[(4S)-4-carboxy-4-(19-carboxynonadecanoylamino)butanoyl]-[Arg14,Arg17,Pro21,Pro27]-h-amylin]
1.16 nM | 82.4 | 108 nM | 93.2 | K([γGlu-C20 diacid])CNTATCATQRLARFLRHSSPNFGAIPSSTNVGPNTY-NH2 (disulfide 2-7; N-terminus assumed; SMILES CC[C@H](C)[C@H](NC(=O)[C@H](C)NC(=O)CNC(=O)[C@H](Cc1ccccc1)NC(=O)[C@H](CC(N)=O)NC(=O)[C@@H]1CCCN1C(=O)[C@H](CO)NC(=O)[C@H](CO)NC(=O)[C@H](Cc1c[nH]cn1)NC(=O)[C@H](CCCNC(=N)N)NC(=O)[C@H](CC(C)C)NC(=O)[C@H](Cc1ccccc1)NC(=O)[C@H](CCCNC(=N)N)NC(=O)[C@H](C)NC(=O)[C@H](CC(C)C)NC(=O)[C@H](CCCNC(=N)N)NC(=O)[C@H](CCC(N)=O)NC(=O)[C@@H](NC(=O)[C@H](C)NC(=O)[C@@H]1CSSC[C@H](NC(=O)[C@@H](N)CCCCNC(=O)CC[C@H](NC(=O)CCCCCCCCCCCCCCCCCCC(=O)O)C(=O)O)C(=O)N[C@@H](CC(N)=O)C(=O)N[C@@H]([C@@H](C)O)C(=O)N[C@@H](C)C(=O)N[C@@H]([C@@H](C)O)C(=O)N1)[C@@H](C)O)C(=O)N1CCC[C@H]1C(=O)N[C@@H](CO)C(=O)N[C@@H](CO)C(=O)N[C@H](C(=O)N[C@@H](CC(N)=O)C(=O)N[C@H](C(=O)NCC(=O)N1CCC[C@H]1C(=O)N[C@@H](CC(N)=O)C(=O)N[C@H](C(=O)N[C@@H](Cc1ccc(O)cc1)C(N)=O)[C@@H](C)O)C(C)C)[C@@H](C)O, Analogue of human amylin; also called compound 65)
